The series concerns the target kappa-casein of bovine (cow's) milk, P02668.

Data on two proteins can be found in US20110008492.

Sequence of kappa-casein of bovine (cow's) milk, P02668 (P02668 22-190): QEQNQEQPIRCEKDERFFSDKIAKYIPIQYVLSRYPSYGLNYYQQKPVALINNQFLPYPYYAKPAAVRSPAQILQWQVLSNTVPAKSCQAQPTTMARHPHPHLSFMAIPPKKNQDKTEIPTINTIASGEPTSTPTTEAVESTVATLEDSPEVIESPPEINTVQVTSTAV

B1: camel chymosin (Camelus dromedarius chymosin, recombinantly produced) (protein)
chain: GKVAREPLTSYLDSQYFGKIYIGTPPQEFTVVFDTGSSDLWVPSIYCKSNVCKNHHRFDPRKSSTFRNLGKPLSIHYGTGSMEGFLGYDTVTVSNIVDPNQTVGLSTEQPGEVFTYSEFDGILGLAYPSLASEYSVPVFDNMMDRHLVARDLFSVYMDRNGQGSMLTLGAIDPSYYTGSLHWVPVTLQQYWQFTVDSVTINGVAVACVGGCQAILDTGTSVLFGPSSDILKIQMAIGATENRYGEFDVNCGNLRSMPTVVFEINGRDYPLSPSAYTSKDQGFCTSGFQGDNNSELWILGDVFIREYYSVFDRANNRVGLAKAI
As to B1, the Specific activity (IMCU/mg) amounted to 462 IMCU/mg and the Time to clotting was 12 to 13 min.

B2: bovine (calf) chymosin B, recombinant (protein)
chain: GEVASVPLTNYLDSQYFGKIYLGTPPQEFTVLFDTGSSDFWVPSIYCKSNACKNHQRFDPRKSSTFQNLGKPLSIHYGTGSMQGILGYDTVTVSNIVDIQQTVGLSTQEPGDVFTYAEFDGILGMAYPSLASEYSIPVFDNMMNRHLVAQDLFSVYMDRNGQESMLTLGAIDPSYYTGSLHWVPVTVQQYWQFTVDSVTISGVVVACEGGCQAILDTGTSKLVGPSSDILNIQQAIGATQNQYGEFDIDCDNLSYMPTVVFEINGKMYPLTPSAYTSQDQGFCTSGFQSENHSQKWILGDVFIREYYSVFDRANNLVGLAKAI
B2 returned a Specific activity (IMCU/mg) of 223 IMCU/mg and a Time to clotting of 12 to 13 min.
